Laboratory results published in patent CN112500487A (HUADAO SHANGHAI BIOMEDICAL CO LTD, dated 2021).

Target: T1, Human IL-3Rα/CD123蛋白 (human, UniProt P26951 19-305, limits assumed)
T1 construct: Soluble antigen in the mobile phase of the SPR run
T1 sequence (looked up): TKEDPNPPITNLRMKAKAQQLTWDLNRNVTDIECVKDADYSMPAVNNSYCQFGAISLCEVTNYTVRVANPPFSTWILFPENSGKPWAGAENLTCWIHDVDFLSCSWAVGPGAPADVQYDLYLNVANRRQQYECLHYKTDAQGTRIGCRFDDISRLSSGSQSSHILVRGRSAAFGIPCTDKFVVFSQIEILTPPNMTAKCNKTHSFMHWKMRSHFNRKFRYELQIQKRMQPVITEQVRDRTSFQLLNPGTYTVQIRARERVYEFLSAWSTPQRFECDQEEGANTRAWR
Test: SPR (Biacore), antibody immobilised on chip, antigen in mobile phase

B1: CD123-89 VHH-mIgG2a Fc抗体 (anti-CD123 VHH CD123-89 with mouse Fc tag) (Fc fusion)
chain: EVQLVESGGDSVQTGGSLRLSCLASGYIGSGYCLAWFRQAPGKERKKVANIVIGVGRPYYADSVKGRFTISQDNAKNTLYLQMNSLKPEDTAMYYCAASKFGSWSCGDYNYWGQGTQVTVSS
notes: Expressed in 293E cells from C-4pCP.Stuffer VHH-mCg2a-FC and purified on MabSelect SuRe; also called 抗CD123 VHH抗体CD123-89; 重组CD123-89抗体; not shown: mouse IgG2a Fc tag from vector C-4pCP.Stuffer VHH-mCg2a-FC
Kd: 480 pM
koff: 0.000174 s⁻¹
kon: 362000 M⁻¹ s⁻¹
